In US20180021430A1 (UNIVERSITAETSKLINIKUM FREIBURG, published 2018):

T1: recombinant CD40L, TNF homologous region of human CD40L (E108 to L261), produced as c-myc- and His-tag fusion … (human)
T1 construct: also called sCD40L; His-tag-CD40L fusion protein
T1 chain: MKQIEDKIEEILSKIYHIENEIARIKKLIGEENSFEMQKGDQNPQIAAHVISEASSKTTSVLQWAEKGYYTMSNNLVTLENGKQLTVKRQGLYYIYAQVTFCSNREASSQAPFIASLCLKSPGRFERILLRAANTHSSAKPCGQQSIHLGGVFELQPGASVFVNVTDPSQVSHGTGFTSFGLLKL


Columns and labels:
[1] = molecular target: T1, recombinant CD40L, TNF homologous …; assay: solid phase competition assay: M7 against binding of CD40L to the immobilized I-domain
Procedure: (§1) Solid phase binding assay. […] A mixture of equal molarities of all peptides served as the positive control in this assay.
(§2) The recombinant Mac-1 I-domain was immobilized in 96-well plates (Nunc) in PBS at 4° C. overnight. […] Binding was quantified by addition of TMB-substrate (Pierce), colorimetric reaction at 450 nm. […] Binding of the recombinant Mac-1 I-domain was quantified by addition of anti-His-Biotin monoclonal antibody (Qiagen), HRP-coupled streptavidin (Pierce) and colorimetric reaction at 450 nm. […] Kd was estimated using a one-site binding hyperbola nonlinear regression model with the Software Prism (Graphpad). […] A mixture of equal molarities of all peptides served as positive control. Absorbance on BSA-coated wells served as negative control and was subtracted.

[2] = molecular target: T2, recombinant Mac-1 I-domain, human Mac-1 (alpha M) amino residues R115 to S340, soluble His-tag fusion protein (human, UniProt P11215 131-356); assay: solid phase binding assay, one-site binding hyperbola; I-domain on immobilized CD40L, BSA wells subtracted
T2 construct: range 115-340; ~28 kDa; also called alphaM I-domain; not shown: C-terminal His-tag from vector pET20b
T2 sequence (P11215 131-356): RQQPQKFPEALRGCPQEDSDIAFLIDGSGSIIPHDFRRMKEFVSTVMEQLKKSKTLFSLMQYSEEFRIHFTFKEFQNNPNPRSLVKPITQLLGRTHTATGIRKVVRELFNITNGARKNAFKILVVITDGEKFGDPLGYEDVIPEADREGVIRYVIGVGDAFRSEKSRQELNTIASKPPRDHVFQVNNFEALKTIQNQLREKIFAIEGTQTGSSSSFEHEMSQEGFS
Procedure: as §1, §2

Row | Binder | IC50 [1] [nM] | Kd [2] [nM]
1 | EQLKKSKTL (linear fragment of the Mac-1 I-domain, E162-L170) [peptide M7 (EQLKKSKTL)] | ~4000 | –
2 | CD40L without a His-tag (Provitro) (ligand, Bought protein; also called CD40L (Provitro); immobilized CD40L) MQKGDQNPQIAAHVISEASSKTTSVLQWAEKGYYTMSNNLVTLENGKQLTVKRQGLYYIYAQVTFCSNREASSQAPFIASLCLKSPGRFERILLRAANTHSSAKPCGQQSIHLGGVFELQPGASVFVNVTDPSQVSHGTGFTSFGLLKL | – | ~66
